In paper PMC8204342, “Dual arginine recognition of LRRK2 phosphorylated Rab GTPases” (Biophysical Journal, 2021):

B1: RILPL2-GFP WT, full length [human] / HA-Rab8a in MLi-2 treated cells (LRRK2 inhibited) [Homo sapiens (Human).] (parent)
chain 1: MEEPPVREEEEEEGEEDEERDEVGPEGALGKSPFQLTAEDVYDISYLLGRELMALGSDPRVTQLQFKVVRVLEMLEALVNEGSLALEELKMERDHLRKEVEGLRRQSPPASGEVNLGPNKMVVDLTDPNRPRFTLQELRDVLQERNKLKSQLLVVQEELQCYKSGLIPPREGPGGRREKDAVVTSAKNAGRNKEEKTIIKKLFFFRSGKQT
chain 2: MAKTYDYLFKLLLIGDSGVGKTCVLFRFSEDAFNSTFISTIGIDFKIRTIELDGKRIKLQIWDTAGQERFRTITTAYYRGAMGIMLVYDITNEKSFDNIRNWIRNIEEHASADVEKMILGNKCDVNDKRQVSKERGEKLALDYGIKFMETSAKANINVENAFFTLARDIKAKMDKKLEGNSPQGSNQGVKITPDQQKRSSFFRC

Variants of: B1
Assay: co-immunoprecipitation (GFP binder Sepharose) with LI-COR immunoblot quantification
Conditions: with HA-Rab8a in MLi-2 treated cells (LRRK2 inhibited) [Homo sapiens (Human).]; HEK293 cells, Flag-LRRK2[Y1699C] + HA-Rab8a co-expressed; 500 nM MLi-2 for 90 min; parent: 0.11; read off a plot

First: chain 1 MEEPPVREEEEEEGEEDEERDEVGPEGALGKSPFQLTAEDVYDISYLLGRELMALGSDPRVTQLQFKVVRVLEMLEALVNEGSLALEELKMERDHLRKEVEGLRRQSPPASGEVNLGPNKMVVDLTDANRPRFTLQELRDVLQERNKLKSQLLVVQEELQCYKSGLIPPREGPGGRREKDAVVTSAKNAGRNKEEKTIIKKLFFFRSGKQT [chain 1 P128A]
Second: chain 1 MEEPPVREEEEEEGEEDEERDEVGPEGALGKSPFQLTAEDVYDISYLLGRELMALGSDPRVTQLQFKVVRVLEMLEALVNEGSLALEELKMERDHLRKEVEGLRRQSPPASGEVNLGPNKMVVDLTNPNRPRFTLQELRDVLQERNKLKSQLLVVQEELQCYKSGLIPPREGPGGRREKDAVVTSAKNAGRNKEEKTIIKKLFFFRSGKQT [chain 1 D127N]
The ratio to parent of the first is lower: 0.11 for the first, 0.12 for the second.

Compared with chain 1 MEEPPVREEEEEEGEEDEERDEVGPEGALGKSPFQLTAEDVYDISYLLGRELMALGSDPRVTQLQFKVVRVLEMLEALVNEGSLALEELKMERDHLRKEVEGLRRQSPPASGEVNLGPNKMVVDLTAPNRPRFTLQELRDVLQERNKLKSQLLVVQEELQCYKSGLIPPREGPGGRREKDAVVTSAKNAGRNKEEKTIIKKLFFFRSGKQT [chain 1 D127A], chain 1 MEEPPVREEEEEEGEEDEERDEVGPEGALGKSPFQLTAEDVYDISYLLGRELMALGSDPRVTQLQFKVVRVLEMLEALVNEGSLALEELKMERDHLRKEVEGLRRQSPPASGEVNLGPNKMVVDLADPNRPRFTLQELRDVLQERNKLKSQLLVVQEELQCYKSGLIPPREGPGGRREKDAVVTSAKNAGRNKEEKTIIKKLFFFRSGKQT [chain 1 T126A] is lower in ratio to parent: 0.13 for the first, 0.12 for the second.

Going from chain 1 MEEPPVREEEEEEGEEDEERDEVGPEGALGKSPFQLTAEDVYDISYLLGRELMALGSDPRVTQLQFKVVRVLEMLEALVNEGSLALEELKMERDHLRKEVEGLRRQSPPASGEVNLGPNKMVVALTDPNRPRFTLQELRDVLQERNKLKSQLLVVQEELQCYKSGLIPPREGPGGRREKDAVVTSAKNAGRNKEEKTIIKKLFFFRSGKQT [chain 1 D124A] to chain 1 MEEPPVREEEEEEGEEDEERDEVGPEGALGKSPFQLTAEDVYDISYLLGRELMALGSDPRVTQLQFKVVRVLEMLEALVNEGSLALEELKMERDHLRKEVEGLRRQSPPASGEVNLGPNKMVVNLTDPNRPRFTLQELRDVLQERNKLKSQLLVVQEELQCYKSGLIPPREGPGGRREKDAVVTSAKNAGRNKEEKTIIKKLFFFRSGKQT [chain 1 D124N], the ratio to parent rises from 0.06 to 0.09.
